The target of the experiment is Human IgM heavy (μ) chain of the full-length IgM pentamer from myeloma (human) (UniProt P01871). Description: cryo-EM structure; full-length human IgM pentamer without secretory component, 0.25 mg/ml, in PBS; single-particle cryo-EM, 3D variability analysis and focused refinement on subunit 1; models PDB 6KXS, 4JVU and 2AGJ rigidly docked.

For orientation: stoichiometry N means the number of molecules, sites or subunits per partner or assembly. Substance “Human IgM heavy (μ) chain of the full-length IgM pentamer from myeloma (from UniProt P01871 106-433) (natural protein)” registered a stoichiometry N of 10.

The record behind these values is article PMC9588798.
